Read-outs that look alike come from different tables or passages of the source.
What was measured:
[1] = Observation of liposomes into which comparative compound 3 was introduced (aggregation); assay type: physicochemical; settings: pH 6.5 or less
Experimental: Comparative liposome 3 into which comparative compound 3 obtained in Comparative Example 3 had been introduced was produced according to the method described in Example 4, and calcein-encapsulated comparative liposome 3 was prepared by the same production method as in Test Example 1.
Thus, the pH-responsiveness was insufficient.

[2] = assay type: physicochemical; settings: for Calcein leakage rate (%): calcein-encapsulated liposome, 37° C., 10 minutes; for Leakage of calcein (in words): pH 6.5 (pH changed from 7.4 to 6.5)
Experimental: • (1) After a peptide-containing lipid membrane was prepared as in Example 4, a calcein (Mw: 622.55) 30-mM solution was added, and calcein-encapsulated liposome 1 was prepared as in Example 4. Unencapsulated calcein was removed by gel filtration (Sephadex G50).
To measure the leakage of the encapsulated calcein from the liposomes, the liposomes were diluted and suspended in buffers having different pHs, and then incubated at 37° C. for 10 minutes. The fluorescence (λex: 488 nm, λem: 517 nm) of the leaked calcein was measured by a plate reader (Infinite M200, produced by Tecan). The fluorescence of the leaked calcein when the liposomes were mixed with 1% Triton-X100 was regarded as complete leakage. The leakage rate was calculated by the following formula. […] Leakage rate(%)=(Fsample−FpH 7.4)/(Ftriton−FpH 7.4)×100
Fsample Fluorescence of calcein leaked from the liposomes at each pH
FpH 7.4: Fluorescence of calcein leaked from the liposomes at a pH of 7.4
Ftriton: Fluorescence of calcein when the liposomes were mixed with 1% Triton-X100.
Calcein was encapsulated in liposome 1 obtained in Example 4, and liposomes 2 and 3 obtained in Example 5, and pH responsiveness was examined as in Test Example 1.
The calcein leakage rate of the calcein-encapsulated liposomes obtained in Examples 4, 6, and 7, and Comparative Examples 4 to 6 at a pH of 7.4 and a pH of 6.5 was calculated as in Test Example 1.

[3] = CD spectra of peptide alone or peptide-introduced liposome under different pH conditions; assay type: physicochemical; settings: PBS (−), peptide concentration 20 μM
Experimental: Peptide compound 1 obtained in Example 1 alone and a peptide-introduced liposome obtained according to Example 4 (each having a peptide concentration of 20 μM) were suspended in PBS (−) with different pHs, and CD (circular dichroism) spectra were recorded on a J-720WI spectropolarimeter (produced by JASCO Corporation).
The “α-helix” represents an α-helix structure, and the “random coil structure” represents a state in which a clear secondary structure is not formed.

Sequence: HGHGLALLAHALLAHAAAAL [compound 3]
- Aggregation of liposomes [1]: remarkably aggregated
- Calcein fluorescence on attempted encapsulation (liposome stability) ([2]; pH 7.4): fluorescence intensity at the same level as that when Triton treatment was performed

Sequence: HGHGLALLAHALLAHAALAHAALA [Peptide compound 1]
- Calcein leakage rate (%) ([2]; pH 6.5): 100%
- Calcein leakage rate (%) ([2]; pH 7.4): 0%
- Secondary structure from CD spectrum ([3]; as the pH was reduced): sequentially converted into a random coil structure
- Secondary structure from CD spectrum ([3]; pH 7.4): α-helix

Sequence: HHGGLLLLHHHAAAAALLLAAAAA [compound 1]
- Leakage of calcein (in words) [2]: remarkably reduced
- Calcein leakage rate (%) ([2]; pH 6.5): 30%
- Calcein leakage rate (%) ([2]; pH 7.4): 0%

Sequence: HGHGGGGGGGGGAHALLAHAALAH [compound 2]
- Leakage of calcein (in words) [2]: remarkably reduced
- Calcein leakage rate (%) ([2]; pH 6.5): 30%
- Calcein leakage rate (%) ([2]; pH 7.4): 0%

Sequence: EGEGLALLAHALLAHAALAHAALA [Peptide compound 3]
- Calcein leakage rate (%) ([2]; pH 6.5): 65%
- Calcein leakage rate (%) ([2]; pH 7.4): 0%

Sequence: GHHGLALLHALHLAAAALHAAALA [Peptide compound 2]
- Calcein leakage rate (%) ([2]; pH 6.5): 90%
- Calcein leakage rate (%) ([2]; pH 7.4): 0%

Reference: patent US9526791B2, “Weakly acidic pH-responsive peptide and liposome containing same” (Taiho Pharmaceutical Co., Ltd., priority 2012, dated 2016)
